Article PMC10404690

Experiments:
K18 fibril seeds (human) [1] = molecular target: K18 fibril seeds (human) (UniProt P10636)
htau40 seeds (human) = htau40 seeds (human) (UniProt P10636)
[2] = molecular target: AD tau filaments (in AD brain homogenate) (human (endogenous in AD brain tissue))
K18 fibril seeds (human) [3] = molecular target: K18 fibril seeds (human) (UniProt P10636); remark: listed apart in the source
[4] = molecular target: Atto633-labeled K18 monomer (human) (UniProt P10636); experiment: fluorescence polarisation; fluorescence anisotropy; 100 nM Atto633-labeled monomer titrated with K18 seeds (0–20 μM monomer equivalents), equilibrated 16 h at 22 °C; one-site binding model; apparent KD, based on monomer equivalents of seeds, not seed concentrations
[5] = molecular target: Atto633-labeled 4R MAP2 monomer (UniProt P11137); experiment: as above
[6] = molecular target: Atto633-labeled 3R MAP2 monomer (UniProt P11137); experiment: as above

Chain of 4R MAP2 (P11137 other isoform, or with tags, fused parts or gaps): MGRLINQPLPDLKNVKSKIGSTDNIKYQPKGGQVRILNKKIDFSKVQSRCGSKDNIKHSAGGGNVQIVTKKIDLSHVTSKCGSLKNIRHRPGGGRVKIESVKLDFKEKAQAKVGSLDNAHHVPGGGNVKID
Chain of K18 fibril seeds (human) (P10636 561-689): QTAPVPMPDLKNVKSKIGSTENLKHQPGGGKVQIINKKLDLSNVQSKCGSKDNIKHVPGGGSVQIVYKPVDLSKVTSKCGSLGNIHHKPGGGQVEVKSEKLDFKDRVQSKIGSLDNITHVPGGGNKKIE
Chain of K18 fibril seeds (P10636 561-689): as above
Chain of htau40 seeds (human) (P10636 other isoform, or with tags, fused parts or gaps): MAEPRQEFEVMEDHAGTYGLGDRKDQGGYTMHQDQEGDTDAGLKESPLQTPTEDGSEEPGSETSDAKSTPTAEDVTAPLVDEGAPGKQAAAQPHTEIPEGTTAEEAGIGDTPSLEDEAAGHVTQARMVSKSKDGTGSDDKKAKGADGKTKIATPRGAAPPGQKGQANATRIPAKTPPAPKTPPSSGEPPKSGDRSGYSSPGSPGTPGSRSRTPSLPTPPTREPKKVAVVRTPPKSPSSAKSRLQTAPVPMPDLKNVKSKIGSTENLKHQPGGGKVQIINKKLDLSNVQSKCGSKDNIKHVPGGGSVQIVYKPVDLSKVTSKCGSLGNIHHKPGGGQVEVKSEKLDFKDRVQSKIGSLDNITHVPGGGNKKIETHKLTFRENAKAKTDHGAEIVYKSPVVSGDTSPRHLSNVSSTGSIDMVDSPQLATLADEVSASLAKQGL

With “3R MAP2 (from UniProt P11137-4 362-490) (domain or fragment)” the IC50 of inhibition of K18-seeded aggregation of 10 μM K18 monomers (10% seeds, 6 h, 37 °C; sedimentation, SDS-PAGE, Coomassie; 12.5 nM-25 μM 3R MAP2); blocks recruitment of K18 monomers onto K18 seeds (K18 fibril seeds (human) [1]) was 2.2 µM, the tau fibril growth (10 μM htau40 monomers on 1% htau40 seeds, 21 h, 37 °C; sedimentation, SDS-PAGE) with 10 μM 3R MAP2, relative to the reaction without MAP2 set to 100% (% of growth without MAP2) (htau40 seeds (human)) was 56 and the amplification of tau fibrils from AD brain homogenate (5 μM htau40 monomer, cycles of shaking and growth for 30 h; sedimentation, SDS-PAGE, densitometry) with 5 μM 3R MAP2 [2] was greater than 80 % reduction. The percent of HEK293 cells expressing htau40P301S-EYFP that contain tau puncta 24 h after transduction of K18 seeds preincubated with 3R MAP2 (25% without MAP2) (K18 fibril seeds (human) [3]) was 11 % of cells.

Substance “K18 fibril seeds (from UniProt P10636-8 244-372)” has a Kd [4] of 5.4 µM, a Kd [5] of 1.3 µM and a Kd [6] of 1.6 µM.

“4R MAP2 (from UniProt P11137-4 362-490) (domain or fragment)” gave an IC50 of inhibition of K18-seeded aggregation of 10 μM K18 monomers (10% seeds, 6 h, 37 °C; sedimentation, SDS-PAGE, Coomassie; 12.5 nM-15 μM 4R MAP2); blocks recruitment of K18 monomers onto K18 seeds (K18 fibril seeds (human) [1]) of 1.1 µM, a tau fibril growth (10 μM htau40 monomers on 1% htau40 seeds, 21 h, 37 °C; sedimentation, SDS-PAGE) with 10 μM 4R MAP2, relative to the reaction without MAP2 set to 100% (% of growth without MAP2) (htau40 seeds (human)) of 25 and an amplification of tau fibrils from AD brain homogenate (5 μM htau40 monomer, cycles of shaking and growth for 30 h; sedimentation, SDS-PAGE, densitometry) with 5 μM 4R MAP2 [2] greater than 80 % reduction. For the same substance, the percent of HEK293 cells expressing htau40P301S-EYFP that contain tau puncta 24 h after transduction of K18 seeds preincubated with 4R MAP2 (25% without MAP2) (K18 fibril seeds (human) [3]) was 6.4 % of cells.
